Experimental data taken from patent US20210403583A1 (ELIXIRON IMMUNOTHERAPEUTICS HONG KONG, published 2021).
Residue numbers refer to the chain shown, from its start. Like-named read-outs stand apart in the source and are kept apart here.

Assays:
[1] = target: T1, human CSF1R expressed on cells (293F/huCSF1R stable cells; AML5 cells; human monocytes and macrophages) (human, UniProt P07333 20-972); assay: cell-based or functional assay
[2] = target: T2, recombinant human CSF1R-His (Biolegend) (human, UniProt P07333 20-512, limits assumed); assay: BLI (Octet RED96), antibody captured on AHC biosensor, CSF1R-His in solution, 1:1 model
T2 construct: Bought protein; also called CSF1R-His (monomer); hu-CSF1R; not shown: His tag
Procedure: Kinetic rate constants, ka and kd, for binding of 6D4 and 6M6 to CSF1R were measured by Bio-Layer Interferometry (BLI) (ForteBio Octet RED96). The BLI assay was performed using AHC (Anti-hIgG Fc Capture) biosensors (ForteBio) to capture each anti-CSF1R antibody (2 μg/mL) to acquire a 0.5 nm shift and then the biosensors were dipped into varying concentrations (i.e. 0, 0.549, 1.65, 4.94, 14.8, 44.4, 133.3 and 400 nM) of recombinant CSF1R-His protein in running buffer containing PBS-Tween 20 (0.1%), BSA (0.1%). Rate constants were calculated by curve fitting analyses (1:1 Langmuir model) of binding response with a 5-minute association and 15-minute dissociation interaction time.

[3] = target: T2, recombinant human CSF1R-His (Biolegend); assay: ELISA, coated human CSF1R-His (monomer)
Procedure: (§1) Materials and methods: Recombinant human CSF1R-His (Biolegend), or CSF1R-Fc fusion protein, were immobilized on 96 well microtiter plate at a concentration of 1 μg/mL in Coating Solution (SeraCare) overnight at 4° C. The wells were washed with wash solution (0.05% Tween20 in imidazole-buffered saline) and blocked with 1% BSA. Serial dilutions of the antibodies were added to wells. After incubation at 3TC for 1 h, the wells were washed with wash solution. Peroxidase-conjugated goat anti-human kappa light chain antibody (Bethyl) was applied to each well at 3TC for 1 h incubation. After washing, the wells were developed with TMB substrate for 5-10 min at RT and then stopped with 1 N HCl. Thereafter absorbance was measured at 450 nm and 650 nm. The EC50 values were calculated through GraphPad Prism7.

[4] = target: T3, recombinant human CSF1R-Fc fusion protein (human, UniProt P07333 20-512); assay: ELISA, coated human CSF1R-Fc (dimer)
T3 construct: probably the same protein; also called CSF1R-Fc (dimer); not shown: Fc part
Procedure: as §1

[5] = target: T1, human CSF1R expressed on cells …; assay: cell-based or functional assay; remark: listed apart in the source
[6] = target: T1, human CSF1R expressed on cells …; assay: cell-based or functional assay; remark: listed apart in the source
[7] = target: T3, recombinant human CSF1R-Fc fusion …; assay: ELISA, coated human CSF1R-Fc
Procedure: Materials and methods: Recombinant human CSF1R-Fc, or mouse CSF1R-Fc (Sino Biological) were immobilized on 96 well microtiter plate at a concentration of 1 μg/mL in Coating Solution (SeraCare) overnight at 4° C. The wells were washed with wash solution (0.05% Tween20 in imidazole-buffered saline) and blocked with 1% BSA. Serial dilutions of the anti-CSF1R/IL-10 fusion proteins were added to wells. After incubation at 3TC for 1 h, the wells were washed with wash solution. To detect chimeric Ab/IL10 fusions, peroxidase-conjugated goat anti-human kappa light chain antibody (Bethyl) was applied to each well at 3TC for 1 h incubation. To detect AB98 or AB98/1110 fusions, peroxidase-conjugated Goat anti-mouse IgG Fab antibody (Jackson immunoresearch) was applied to each well at 3TC for 1 h incubation. After washing, the wells were developed with TMB substrate for 5-10 min at RT and then stopped with 1 N HCl. Thereafter absorbance was measured at 450 nm and 650 nm.

[8] = target: T1, human CSF1R expressed on cells …; assay: cell-based or functional assay; remark: listed apart in the source
[9] = target: T1, human CSF1R expressed on cells …; assay: cell-based or functional assay; remark: listed apart in the source
[10] = target: T4, cynomolgus CSF1R expressed on 293F cells (cynomolgus monkey, UniProt P07333 20-972 (human entry)); assay: flow cytometry titration on 293F cells overexpressing cynomolgus CSF1R, anti-human IgG-Alexa Fluor 647
T4 construct: also called cynoCSF1R
T4 chain: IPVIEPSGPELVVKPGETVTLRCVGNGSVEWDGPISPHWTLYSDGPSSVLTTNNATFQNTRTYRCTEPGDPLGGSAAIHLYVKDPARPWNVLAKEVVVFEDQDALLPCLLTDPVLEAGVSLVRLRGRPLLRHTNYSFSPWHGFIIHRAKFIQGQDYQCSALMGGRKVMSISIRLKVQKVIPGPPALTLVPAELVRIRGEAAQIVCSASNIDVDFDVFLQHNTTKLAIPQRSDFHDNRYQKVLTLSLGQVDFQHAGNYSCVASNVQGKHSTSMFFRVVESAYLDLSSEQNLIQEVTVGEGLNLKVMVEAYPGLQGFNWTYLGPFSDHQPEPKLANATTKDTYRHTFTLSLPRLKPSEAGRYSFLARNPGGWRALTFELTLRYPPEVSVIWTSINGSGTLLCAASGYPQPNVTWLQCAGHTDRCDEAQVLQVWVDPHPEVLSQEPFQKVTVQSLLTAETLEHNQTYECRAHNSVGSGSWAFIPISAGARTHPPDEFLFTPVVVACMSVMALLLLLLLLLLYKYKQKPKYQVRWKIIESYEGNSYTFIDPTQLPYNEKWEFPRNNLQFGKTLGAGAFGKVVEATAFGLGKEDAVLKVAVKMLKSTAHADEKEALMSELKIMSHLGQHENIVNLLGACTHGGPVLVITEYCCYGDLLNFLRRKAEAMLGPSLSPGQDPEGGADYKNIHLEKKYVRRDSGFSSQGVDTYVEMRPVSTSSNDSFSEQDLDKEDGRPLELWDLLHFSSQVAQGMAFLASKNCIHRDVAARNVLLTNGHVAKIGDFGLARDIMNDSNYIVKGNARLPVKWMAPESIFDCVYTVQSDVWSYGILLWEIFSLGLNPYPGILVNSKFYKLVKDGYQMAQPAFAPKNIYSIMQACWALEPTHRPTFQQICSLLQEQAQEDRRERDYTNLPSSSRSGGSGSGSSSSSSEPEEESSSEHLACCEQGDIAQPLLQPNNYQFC
Description: Materials and methods: The gene segments encoding full-length human CSF1R or cynomolgus CSF1R were obtained using Thermo gene synthesis service and cloned in a mammalian expression vector pCDNA3.4. […] After washing with FACS buffer (2%FBS in PBS), the cells were stained with anti-human IgG-Alexa Fluor 647 and analyzed by Attune N×T Flow Cytometer (Thermo Scientific).

[11] = target: T3, recombinant human CSF1R-Fc fusion …; assay: ELISA, coated human CSF1R-Fc (dimer); remark: listed apart in the source
Procedure: as §1, with “protein” for “protein,”, “Hybridoma culture supernatants or serial” for “Serial”, “of” for “of the”, “37° C.” for “3TC”, “EC₅₀” for “EC50”

[12] = target: T2, recombinant human CSF1R-His (Biolegend); assay: ELISA, coated human CSF1R-His (monomer); remark: listed apart in the source
Procedure: as §1, with “protein” for “protein,”, “Hybridoma culture supernatants or serial” for “Serial”, “of” for “of the”, “37° C.” for “3TC”, “EC₅₀” for “EC50”

[13] = target: T3, recombinant human CSF1R-Fc fusion …; assay: competition ELISA, coated human CSF1R-Fc, competitor biotinylated CSF1-His 2.5 ug/mL
Procedure: Materials and methods: Recombinant human CSF1R-Fc fusion protein was immobilized on 96 well microtiter plate at a concentration of 1 μg/mL in Coating Solution (SeraCare) overnight at 4° C. The wells were washed with wash solution and blocked with 1% BSA at RT. Serial dilutions of the antibodies were added to wells. Then 2.5 ug/mL biotinylated CSF1-His (Biolegend) was added and incubated for 1 h at 37° C. After washing, Streptavidin-HRP (Jackson ImmunoResearch) was applied to wells at RT for 1 h incubation. After washing, the wells were developed with TMB substrate for 5-10 min at RT and the stopped with 1 N HCl. Thereafter absorbance was measured at 450 nm and 650 nm. The IC₅₀ values were calculated through GraphPad Prism7.

T2 sequence (P07333 20-512 limits assumed): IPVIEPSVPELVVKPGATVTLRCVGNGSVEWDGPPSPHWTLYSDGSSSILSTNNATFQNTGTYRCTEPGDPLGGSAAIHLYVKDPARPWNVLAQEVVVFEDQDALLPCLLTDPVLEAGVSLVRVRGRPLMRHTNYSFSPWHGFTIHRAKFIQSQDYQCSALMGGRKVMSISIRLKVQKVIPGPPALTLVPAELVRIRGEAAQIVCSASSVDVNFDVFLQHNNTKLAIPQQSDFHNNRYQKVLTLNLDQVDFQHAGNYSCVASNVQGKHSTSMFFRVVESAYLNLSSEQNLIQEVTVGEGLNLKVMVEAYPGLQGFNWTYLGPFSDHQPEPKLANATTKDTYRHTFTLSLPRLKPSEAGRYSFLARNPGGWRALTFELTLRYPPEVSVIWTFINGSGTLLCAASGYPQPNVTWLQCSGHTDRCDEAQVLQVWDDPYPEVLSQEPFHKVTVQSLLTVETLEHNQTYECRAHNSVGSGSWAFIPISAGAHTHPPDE
T3 sequence (P07333 20-512 limits assumed): as above

B1: chimeric anti-CSF1R antibody 6D4 (antibody, human IgG1, kappa)
heavy: not shown
light: DIQMNQSPSSLSASLGDTITITCHASQNINVWLSWYQQKPGNIPKLLIYKASNLHTGVPSRFSGSGSGTGFTLTISSLQPEDIATYYCQQGQSYPYTFGGGTKLEIKRTVAAPSVFIFPPSDEQLKSGTASVVCLLNNFYPREAKVQWKVDNALQSGNSQESVTEQDSKDSTYSLSSTLTLSKADYEKHKVYACEVTHQGLSSPVTKSFNRGEC
Question: Which “IC50 (M), CSF1-dependent AML5 cell proliferation” value [1] does the source give for B1 here?
Answer: 4.62e-10 M

Question: What about the “IC50 (M), IL-34-dependent AML5 cell proliferation” value [1] of the same binder?
Answer: 3.49e-10 M

Question: What about the Kd [2] of the same binder?
Answer: 3.42 nM

Question: And the koff [2]?
Answer: 0.000946 s⁻¹

Question: And the kon [2]?
Answer: 277000 M⁻¹ s⁻¹

Question: What about the EC50 [3] of the same binder?
Answer: 0.531 nM

Question: What about the EC50 [4] of the same binder?
Answer: 0.381 nM

Question: And the “IC50 (M), CSF1-dependent survival of CD14+ monocytes” value [5]?
Answer: 5.58e-10 M

Question: And the “IC50 (M), CSF1-dependent survival of macrophages” value [5]?
Answer: 1.38e-10 M

Question: And the “IC50 (M), CSF1-dependent AML5 cell proliferation” value [6]?
Answer: 4.62e-10 M

B2: humanized anti-CSF1R antibody 6M6.hu12 (antibody, human IgG1, kappa)
heavy: not shown
light: DIVLTQSPDSLAVSLGERATINCKASQGVDYAGDSYMNWYQQKPGQPPKLLIYVASDLDSGIPDRFSGSGSGTDFTLTISSLQAEDVATYYCQQSYEDPRTFGGGTTLEIKRTVAAPSVFIFPPSDEQLKSGTASVVCLLNNFYPREAKVQWKVDNALQSGNSQESVTEQDSKDSTYSLSSTLTLSKADYEKHKVYACEVTHQGLSSPVTKSFNRGEC
notes: Humanized version of 6M6; also called 6M6.hul2
Question: For B2, which EC50 [3] is on record?
Answer: 0.103 nM

Question: And the EC50 [4]?
Answer: 0.0613 nM

Question: And the “IC50 (M), CSF1-dependent AML5 cell proliferation” value [6]?
Answer: 5.46e-10 M

B3: humanized anti-CSF1R/IL10 fusion protein 6M6.hu12/IL10 (antibody, human IgG1, kappa)
heavy: not shown
light: B2 light
notes: Antibody-cytokine fusion: human IL10 fused by a linker to the C-terminus of the heavy chain
Question: With B3 as the binder, how does the EC50 [7] read?
Answer: 0.252 nM

Question: What about the “IC50 (M), inhibition of macrophage survival (CSF1-dependent)” value [8] of the same binder?
Answer: 1.49e-10 M

Question: And the “IC50 (M), inhibition of AML5 cell proliferation (CSF1-dependent)” value [9]?
Answer: 1.61e-09 M

Question: Does B3 bind [10]?
Answer: binds

B4: humanized anti-CSF1R antibody 6M6.hu41 (antibody, human IgG1, kappa)
heavy: not shown
light: B2 light with I62V
notes: Humanized version of 6M6
Question: B4 was tested. Which EC50 [3] did it give?
Answer: 0.107 nM

Question: And the EC50 [4]?
Answer: 0.065 nM

Question: And the “IC50 (M), CSF1-dependent AML5 cell proliferation” value [6]?
Answer: 4.3e-10 M

B5: humanized anti-CSF1R/IL10 fusion protein 6M6.hu41/IL10 (antibody, human IgG1, kappa)
heavy: not shown
light: B2 light with I62V
notes: Antibody-cytokine fusion: human IL10 fused by a linker to the C-terminus of the heavy chain; also called 6M6.hu41/1L10
Question: For B5, which EC50 [7] is on record?
Answer: 0.205 nM

Question: And the “IC50 (M), inhibition of macrophage survival (CSF1-dependent)” value [8]?
Answer: 1.84e-10 M

Question: And the “IC50 (M), inhibition of AML5 cell proliferation (CSF1-dependent)” value [9]?
Answer: 8.93e-10 M

Question: Does B5 bind [10]?
Answer: binds

B6: hy6M6 (antibody, V domains shown)
VH: DVQLQQSGTVLARPGASVKMSCKASGYTFTSYWIHWVKQRPGQGLEWIGAIYPGNRDTNYNQKFKGKAKLTTVTSASTAYMELSSLTNEDSAVYYCTGAFAGYYDWYFDVWGAGTTVTVSS
VL: DIVLTQSPASLAVSLGQRATISCKASQGVDYAGDSYMNWYQQKPGQPPKLLIYVASDLDSGIPARFSGSGSGTNFTLNIHPVEEEDAATYYCQQSYEDPRTFGGGTTLEIQ
notes: Mouse hybridoma antibody; also called anti-CSF1R antibody purified from hybridoma supernatant hy6M6
Question: With B6 as the binder, how does the EC50 [11] read?
Answer: 0.0653 nM

Question: What about the EC50 [12] of the same binder?
Answer: 0.112 nM

Question: What about the IC50 [13] of the same binder?
Answer: 1.04 nM

B7: hy6D4 (antibody, V domains shown)
VH: EIQLQQSGAELVKPRASVKISCEASGYSFTGYNMNWVKQSPGKSLEWIGDINPYYGATTYNQKFKGKATLTVDKSSSTAYMQLNSLTSEDSAVYYCARRGDYGDYEGWYFDVWGAGTTVTVSS
VL: DIQMNQSPSSLSASLGDTITITCHASQNINVWLSWYQQKPGNIPKLLIYKASNLHTGVPSRFSGSGSGTGFTLTISSLQPEDIATYYCQQGQSYPYTFGGGTKLEIK
notes: Mouse hybridoma antibody; also called anti-CSF1R antibody purified from hybridoma supernatant hy6D4
Question: Which results are given for B7?
Answer: EC50 [11]: 0.381 nM; EC50 [12]: 0.531 nM; IC50 [13]: 1.76 nM
